Results on 23 molecules are retold here after patent US20030236190A1 (published 2003).

Positions of bridges follow the written chain, without caps; N, C: chain ends. No end group written: not given here.

B1: 20E23-3-D8-IGFR (peptide)
peptide: GGTEVDFYRALERLVRGQLGL
B2: 20E2A-4-F11-IGFR (peptide)
peptide: QGGSASFYDAIDRLLRMRIGG
B3: A6S-2-D1-IR (peptide)
peptide: VERSASSQDGNFYDWFVVQIR
B4: R20α-3-2082-IR (peptide)
peptide: FYDAIDQLVRGSARAGGTRD
B5: NNRPγ-4-B11-IR (peptide)
peptide: LKDGFYDYFWQRLHLGS
B6: 20C-4-C7-IGFR (peptide)
peptide: FFYDCLAALLQGVARYHDLCAVEIT
modifications: disulfide 5-20 (inferred)
B7: 20E2B-3-C6-IGFR (peptide)
peptide: VEGRGLFYDLLRQLLARRQNG
B8: 20C-3-F6-IGFR (peptide)
peptide: DRDFCRFYERLTALVGGQVDGGWPC
modifications: disulfide 5-25 (inferred)
B9: 20E2B-4-H3-IGFR (peptide)
peptide: KLHNLMFYYGLQRLVWGAGLG
B10: E2CA-3-E8-IGFR (peptide)
peptide: LGYQEPFQQNFYDWFVRQVSGAENAG
B11: 20E2B-1-A6-IGFR (peptide)
peptide: GVRAMSFYDALVSVLGLGPSG
B12: 20E2B-3-D2-IGFR (peptide)
peptide: IQQELTFYDLLHRLVRSELGS
B13: 20E22-3-C2-IGFR (peptide)
peptide: GNGDGMFYQLLSLLVGRDMHV
B14: B6Hα-3-F11-IR (peptide)
peptide: RGMKEEVLVGGSTDPFYHKLSELLQGS
B15: 20C-3-A1-IGFR (peptide)
peptide: SSYGCDGFYLMLFSLGLVASQELEC
modifications: disulfide 5-25 (inferred)
B16: 20E2Bβ-4-G7-IR (peptide)
peptide: LQPCSGFYECIERLIGVKLSG
modifications: disulfide 4-10 (inferred)
B17: A6S-3-E2-IR (peptide)
peptide: TSEVQRRSQDNFYDWFVAQVA
B18: 20E2H-3-E3-IGFR (peptide)
peptide: PDLHKGFYAQLAQLIRGQLLS
B19: H2CA-3-C11-IGFR (peptide)
peptide: FRTLAAQHDSFYDWFDRQVSGAAGER
B20: R20β-4-A6-IR (peptide)
peptide: RGQSDAFYSGLWALIGLSDG
B21: H2CA-3-E11-IGFR (peptide)
peptide: HLADGQFHEKFYDWFERQISSRCNDC
B22: 20C-3-G3-IGFR (peptide)
peptide: TFYSCLASLLTGTPQPNRGPWERCR
modifications: disulfide 5-24 (inferred)
B23: A6S-2-D11-IR (peptide)
peptide: EAASLGSQDRNFYDWFVRQVV

In the first test the target is T1, Soluble IGF-1R (R&D Systems, Cat. # 391-GR/CF); recombinant human IGF-1R (human, UniProt P08069 31-935).
T1 construct: extracellular domain; Eu3+-labelled in the TR-FRET assays; also called sIGF-1R; rhIGF-1R
Kind of test: phage ELISA, vs IR.
Consider B1, for which the “IGF-1R/IR Comparison” value amounted to 11.3 ratio.

Take B2: the “IGF-1R/IR Comparison” value came out at 14.6 ratio.

B3: the “IGF-1R/IR Comparison” value was 2.6 ratio.

Take B4: the “IGF-1R/IR Comparison” value turned out to be 12.9 ratio.

For the molecule B5, the “IGF-1R/IR Comparison” value came to 15.5 ratio.

With B6, the “IGF-1R/IR Comparison” value is 21.8 ratio.

With B7, the “IGF-1R/IR Comparison” value stood at 14.8 ratio.

Consider B8, for which the “IGF-1R/IR Comparison” value turned out to be 14.1 ratio.

As to B9, the “IGF-1R/IR Comparison” value turned out to be 13.9 ratio.

As to B10, the “IGF-1R/IR Comparison” value turned out to be 2.9 ratio.

As for B11, the “IGF-1R/IR Comparison” value was determined as 16.8 ratio.

With B12, the “IGF-1R/IR Comparison” value amounted to 11.7 ratio.

With B13, the “IGF-1R/IR Comparison” value is 13.8 ratio.

With B14, the “IGF-1R/IR Comparison” value was 11.7 ratio.

Turning to B15, the “IGF-1R/IR Comparison” value is 13.7 ratio.

Take B16: the “IGF-1R/IR Comparison” value stood at 15.8 ratio.

Regarding B17, the “IGF-1R/IR Comparison” value came to 2.5 ratio.

Regarding B18, the “IGF-1R/IR Comparison” value was 13.1 ratio.

B19: the “IGF-1R/IR Comparison” value was 2.1 ratio.

As for B20, the “IGF-1R/IR Comparison” value is 17.3 ratio.

Regarding B21, the “IGF-1R/IR Comparison” value is 2.2 ratio.

As for B22, the “IGF-1R/IR Comparison” value was found to be 27 ratio.

On to B23, for which the “IGF-1R/IR Comparison” value turned out to be 2.8 ratio.

A further test deals with T1, Soluble IGF-1R (R&D Systems, Cat. # …). Kind of test: phage ELISA vs milk. (In general: In an ELISA, binding on a coated surface is turned into a signal by an enzyme label.)
On to B1, for which the “Ratio over Background” value was found to be 17.7 fold.

For the molecule B2, the “Ratio over Background” value came out at 18.8 fold.

Consider B3, for which the “Ratio over Background” value was 30.6 fold.

In the case of B4, the “Ratio over Background” value was found to be 39.9 fold.

Turning to B5, the “Ratio over Background” value came to 18.7 fold.

As to B6, the “Ratio over Background” value worked out at 28 fold.

With B7, the “Ratio over Background” value was 16.8 fold.

Regarding B8, the “Ratio over Background” value was 26.1 fold.

B9: the “Ratio over Background” value stood at 14.8 fold.

For B10, the “Ratio over Background” value turned out to be 6.3 fold.

Turning to B11, the “Ratio over Background” value was determined as 18.1 fold.

For B12, the “Ratio over Background” value came to 12.4 fold.

For B13, the “Ratio over Background” value was 8.9 fold.

Regarding B14, the “Ratio over Background” value was determined as 18.7 fold.

Regarding B15, the “Ratio over Background” value stood at 20.8 fold.

As to B16, the “Ratio over Background” value was found to be 25.2 fold.

Turning to B17, the “Ratio over Background” value stood at 24.7 fold.

Regarding B18, the “Ratio over Background” value came to 16.3 fold.

Take B19: the “Ratio over Background” value is 3.3 fold.

For B20, the “Ratio over Background” value was 25.9 fold.

As to B21, the “Ratio over Background” value is 2.2 fold.

As for B22, the “Ratio over Background” value was found to be 32.3 fold.

Turning to B23, the “Ratio over Background” value amounted to 37.4 fold.

In the next test the target is T2, Insulin receptor prepared according to Bass et al., 1996: soluble human insulin receptor-immunoglobulin heavy … (human, UniProt P06213 28-956).
T2 construct: extracellular domain; Eu3+-labelled in TR-FRET; also called IR; sIR-Fc; not shown: immunoglobulin heavy chain constant domains that replace the transmembrane and i
Kind of test: phage ELISA vs milk.
Regarding B1, the “Ratio over Background” value was determined as 1.6 fold.

With B2, the “Ratio over Background” value was found to be 1.3 fold.

B3: the “Ratio over Background” value turned out to be 12 fold.

With B4, the “Ratio over Background” value was 3.1 fold.

B5: the “Ratio over Background” value is 1.2 fold.

For the molecule B6, the “Ratio over Background” value was 1.3 fold.

As for B7, the “Ratio over Background” value turned out to be 1.1 fold.

B8: the “Ratio over Background” value turned out to be 1.9 fold.

For B9, the “Ratio over Background” value was determined as 1.1 fold.

Turning to B10, the “Ratio over Background” value was determined as 2.2 fold.

As to B11, the “Ratio over Background” value worked out at 1.1 fold.

On to B12, for which the “Ratio over Background” value was determined as 1.2 fold.

Consider B13, for which the “Ratio over Background” value amounted to 0.6 fold.

With B14, the “Ratio over Background” value turned out to be 1.6 fold.

With B15, the “Ratio over Background” value was found to be 1.5 fold.

Take B16: the “Ratio over Background” value was 1.6 fold.

On to B17, for which the “Ratio over Background” value came to 9.8 fold.

Regarding B18, the “Ratio over Background” value worked out at 1.3 fold.

As to B19, the “Ratio over Background” value came out at 1.6 fold.

As to B20, the “Ratio over Background” value amounted to 1.5 fold.

For the molecule B21, the “Ratio over Background” value was 1 fold.

For the molecule B22, the “Ratio over Background” value turned out to be 1.2 fold.

For B23, the “Ratio over Background” value stood at 13.9 fold.

The next test addresses T2, Insulin receptor prepared according to …. Kind of test: phage ELISA, vs IGF-1R.
Turning to B1, the “IR/IGF-1R Comparison” value worked out at 0.1 ratio.

Take B2: the “IR/IGF-1R Comparison” value stood at 0.1 ratio.

B3: the “IR/IGF-1R Comparison” value worked out at 0.4 ratio.

For B4, the “IR/IGF-1R Comparison” value stood at 0.1 ratio.

B5: the “IR/IGF-1R Comparison” value came to 0.1 ratio.

Consider B6, for which the “IR/IGF-1R Comparison” value was less than 0.1 ratio.

Turning to B7, the “IR/IGF-1R Comparison” value worked out at 0.1 ratio.

For the molecule B8, the “IR/IGF-1R Comparison” value was found to be 0.1 ratio.

For the molecule B9, the “IR/IGF-1R Comparison” value turned out to be 0.1 ratio.

On to B10, for which the “IR/IGF-1R Comparison” value is 0.3 ratio.

Take B11: the “IR/IGF-1R Comparison” value came to 0.1 ratio.

In the case of B12, the “IR/IGF-1R Comparison” value was found to be 0.1 ratio.

Consider B13, for which the “IR/IGF-1R Comparison” value was 0.1 ratio.

As to B14, the “IR/IGF-1R Comparison” value is 0.1 ratio.

Take B15: the “IR/IGF-1R Comparison” value worked out at 0.1 ratio.

For the molecule B16, the “IR/IGF-1R Comparison” value came to 0.1 ratio.

On to B17, for which the “IR/IGF-1R Comparison” value was 0.4 ratio.

As to B18, the “IR/IGF-1R Comparison” value stood at 0.1 ratio.

On to B19, for which the “IR/IGF-1R Comparison” value came to 0.5 ratio.

Turning to B20, the “IR/IGF-1R Comparison” value stood at 0.1 ratio.

Take B21: the “IR/IGF-1R Comparison” value amounted to 0.5 ratio.

Consider B22, for which the “IR/IGF-1R Comparison” value was less than 0.1 ratio.

For B23, the “IR/IGF-1R Comparison” value is 0.4 ratio.
